From the nanobody polyreactivity screen of Harvey et al. (2022)

Test: yeast display, Sf9 membrane polyspecificity reagent, FACS + sequencing; frameworks hold sequencing errors
In short: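 Galactose induction of a Saccharomyces cerevisiae BJ5465 synthetic nanobody display library ran 36–48 hours. The cells were then stained for 1 hour at 4 °C with 10% biotinylated, detergent-solubilized Sf9 membrane reagent, pulled down on streptavidin microbeads and FACS-sorted into low and high (top ~1%) gates on expression and reagent-binding fluorescence. Labels for polyreactivity follow the gate of origin.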

| Sequence | polyreactivity (PSR sort gate) |
| --- | --- |
| QVQLVESGGGLVQAGGSLRLSCAASGFTFLGYAMGWYRQAPGKERELVAAITRGGSTYYADSVKGRFTISRDNAKNTVYLQMNSLKPEDTAVYYCAARARAGGYGYWGQGTQVTVSS | high polyreactivity |
| QVQLVESGGGLVQAGGSLRLSCAASGRIFRAYAMGWYRQAPGKERELVAAITSGVSTNYADSVKGRFTISRDNAKNTVYLQMNSLKPEDTAVYYCAVLGKRNAYYYWGQGTQVTVSS | low polyreactivity |
| QVQLVESGGGLVQAGGSLRLSCAASGITFPLYAMGWYRQAPGKERELVATISGRGGSTYYADSVKGRFTISRDNAKNTVYLQMNSLKPEDTEVYYCNADFRSPYFLLSWYHSGDYWGQGTQVTVSS | low polyreactivity |
| QVQLVESGGGLVQAGGSLRLSCAASGRIFGTYAMGWYRQAPGKEREFVAAITSSGGNTYYADSVKGRFTISRDNAKNTVYLQMNSLKPEDTGVYYCNARPLYRHYITRFDYWGQGTQVTVSS | high polyreactivity |
| QVQLVESGGGLVQAGGSLRLSCAASGRTFGFNVMGWYRQAPGKEREFVAAITRSGGSTYYADSVKGRFTISRDNAKNTVYLQMNSLKPEDTAVYYCAAYKFSARYYYWGQGTQVTVSS | high polyreactivity |
| QVQLVESGGGLVQAGGSLRLSCAASGLTFVYNTMGWYRQAPGKERELVAAINWSGGRTYYADSVKGRFTISRDNAKNTVYLQMNSLKPEDTAVYYCAALYVPNTPTYKYDYWGQGTQVTVSS | low polyreactivity |
| QGQLVESCGGLVQAGGSLRFICAASGSNFFSYAMGCYRQAPWKERELVASISRRGGTTYYADSVKGRFTISRDNAKNTVYLHMNSLKPDDTAVYYCAAKLLYGGRYGYWGQGTQVTVSS | high polyreactivity |
| QVQLVESGGGLVQAGGSLRLSCAASGRTFGYYAMGWYRPAPGKERELVAAISSNTDSTYYADSVKGRFTISRDNAKNTVYLQMNSLKPEDTAVYYCAAEAYSYYPGTYEDDYWGQGTQVTVSS | low polyreactivity |
| QVQLVESGGGLVQAGGSLRLSCAASGITFWYYAMGWYRQAPGKERELVAAITRSGRTNYADSVKGRFTISRDNAKNTVYLQMNSLKPEDTAVYYCAVYLYSFSPRYYYWGQGTQVTVSS | low polyreactivity |
| QVQLVESGGGLVQAGGSLRLSCAASGRTFAPYVMGWYRQAPGKERELVAAITLSGDSTDYADSVKGRFTISRDNAKNTVYLQMNSLKPEDTAVYYCNVEYLSYTSYFHYYEYDYWGQGSQVTVSS | low polyreactivity |
| QVQLVESGGGLVQAGGSLRLSCAASGVIFFSYAMGWYRQAPGKERELVASISRSGGTTYYADSVKGRFTISRDNGKNTVYLQMNSLKPEDTAVYYCAARTYSYYSRDYCGQGTQVTVSS | high polyreactivity |
| QVQLVESGGGLVQAGGSLRLSCAATGSTLVPNAMGWYRQAPGKERELVAAITRGTITHYADSVKGRFTISRDNAKNTVYVQMNSLKPEDTAVYYCNADVSLDDYDYWGQGTQVTVSS | low polyreactivity |
| QVQLVESGGGLVQAGCSLRLSCAASGSTFRKYAMGWYSQAPGKQREFVAAITSSGGSTYYSDSVKGRFTISRDKAKNTVYLLMNSLIPEDTAVYYCASRGVYVSTAYNYWGQGTQVTESS | high polyreactivity |
| QVQLVESGGGLVQAGGSLRLSCAASGYIFDDNAMGWYRQAPGKERELVATNYADSVKGRFTISRDNAKNTVYLQMNSLKPEDTAVYYCAKDVWQTYTDLDHWGQGTQVTVSS | low polyreactivity |
| QVHLVESVGGLVQAGGSHRLSCAASGRTLGFYAMGWYRQAPGKERELVAAINWSGGSTYYADSVKGRFTISRDNAKNTVYLQMNSLKPEDTAVYNCGVGTNYYDYWGQGTQVTVSS | high polyreactivity |
| QVQLVESGGGLVQAGGSLRLSCAASGLTFASNAMGWYRQAPGKERELVAAISWSDGSTYYADSVKGRFTISRDNAKNTVYLQMNSLKPEDTAVYYCAAESYFFSPRTREKFDYWGQGTQVTVSS | low polyreactivity |
| QVQLVESGGGLVQAGGSLRLSCAASGYTFVIYAMGWYRQAPGKERELVAAITTIGGRTYYADSVKGRFTISRDNAKNTVYLLMNSLKPEDTAVYYCAADIRSNRLYDGGYWGQGTQVTVSS | low polyreactivity |
| QVQLVESGGGLVQAGGSLRLSCAASGRIFVGYYTMGWYRQAPGKERELVASITWGGGRTYYADSVKGRFTISRDNAKNTVYLQMNSLKPEDTAVYYCAAGYPANYYYLGQGTQVTVSS | high polyreactivity |
| QVQLVESGAGLVQAGGSLRLSCAASGSIFGRDTMGWYRQAPGKERELVAAINLRGGSTYYADSVKGRFTISRDNAKNTVYLQMNSLKPEDTAVYYCATDGWKQSAYDYWGQGTQVTVSS | low polyreactivity |
| QVQLVESGGGLVQAGGSLRLICAASGSTFNNNAMGWFRQAPGKERELVAAISYTGGSTYYADSVKGRFTISRDNAKNNVYLQMNSLKPEDTAVYYCAADYPHLGGYRYDYWGQGTQVTVSS | high polyreactivity |
| QVQLVESGGGLVQAGGSLRLSCAASGRIFRDYVMGWYRQAPGKERELVAAITQRGGSTYYADSVKGRFTISRDNAKNTVYLQLNSLKPEDTAVYYCNARWYRYGTGGVGYGGYDYWGQGTQVTVSS | low polyreactivity |
| QVQLVESGGGLVQAGGSLRLSCAASGSTFLSYAMGWYRQAPGKERELVAAITGSGGSTYYADSVKGRFTISRDNAKNTVYLQMNSLKPEDTAVYYCATDLWRWYGWFDYWGQGTQVTVSS | low polyreactivity |

| Sequence | polyreactivity (PSR sort gate) |
| --- | --- |
| QVQLVESGGGLVQAGGSIRLSCAASGINFYGNAMGWYRQAPGKETELVAAISWSGSSTYYADSVKGRFTISRDNAKNTVYFQMLSLKPEDTAVYYCKKATSSVRYLIYYYWGQGTQVTVSS | high polyreactivity |
| QVQLVESGGGLVQAGGSLRLSCAASRFYTMGWYRQAPGKERELVAAISWSGGDTYYADSVKGRFTISRDNAKNTVYLQMNSLKPVDTAVYYRAKKTIGSYVHEPYYYWGQGTQVTVSS | low polyreactivity |
| QVQLVESGGGLVQAGGSLRLSCAASGSTFIYYAMGWYRQAPGKERELVAAISGSGASTYYADSVKGRFTISRDNAKNTVYLQMNSLKPEDTAVYYCHFYRWRGYDYWGQGTQVTVSS | high polyreactivity |
| QVQLVESGGGLVQAGGSLRLSCASSGSTFYGNAMGWYRQEPGKERELVASISSGGTNYADSVKGRFTISRDNAKNTVYLQMNSLKPEDTAVYYLNADYIDTFRGFDYWGQGTQVTVSS | low polyreactivity |
| QVQLVESGGGLVQAGGSLRLSCAASGRIFGSYAMGWYRQAPGKERELVAAITTDDSTNYADSVKGRFTISRDNAKNTVYLQMNSLKPEDTAVYYCNAERWDELFDSWGQGTQVTVSS | low polyreactivity |
| QVQLVESGGGLVQAGGSLRLSCDASGSIFGSYVMGWSRQAPGKERELVAAISSSGASTYYADSVKGRFTISRDNAKNTVYLQMNSLKPEDTAVYYCATTRRPYVRGYPHYYWGQGTQVTVSS | high polyreactivity |
| QVQLVESGGGLVQAGGSLRLSCAASGYTFNIYAMGWYRQAPGKERELVAAITSRGGGTYYADSVKGRFTISRDNAKNTVYLQMNSLKPEDTAVYYCAADVYSYYHWYTHYDYWGQGTQVTVSS | high polyreactivity |
| QVQLVESGGGLVQAGGSLRLSCAASGRTFNAYAMGWYRLAPWKERELVAAISSGGSTYYADSVKGRFTISRDNAKNTVYLQMNSLKQEDTAVYYSNKVYGWRQFDYWGNGTQVTVSS | high polyreactivity |
| QVQLVESGGGLVQAGGSLRLSCAASGRIFIQNTMGWYRQAPGKERELVAAITRSGGRTYYADSVKGRFTISRDNAKNTVYLQMNSLKPEDTAVYYCAAVARTVPSYSYNYWGQGTQVTVSS | high polyreactivity |
| QVQLVESGGGLVQAGGSLRLSSAASGRIFTVYAMGWYRQAPGKERELVAAITRGGGGTYYADSVKGRFTITRDYAKNTDYLQMNRLKPEDTAVYYCAATHNQVVARYSFNYWGQGTQVTVSS | high polyreactivity |
| QVQLVESGGGLVQAGGSLRLSCAASGRTLVGNAMGWYRQAPGKERELVAAISWSGGSTNYADSVKGRFTISRDNAKNTVYLQMNSLKPEDTAVYYCAASVYTYRYWDYYWGQGTQVTVSS | high polyreactivity |
| QDQLVESGGGLVQAGGSLRLSCAASGFTFYQYAMGLYIQAPGKERELVASITWNGGSTFYADSVKGRFTISRDNAKNTVYFQMNSLKPEDTAVYYCNVAYVYGSFRRRPMGYWGQGTQVTVSS | high polyreactivity |
| QVQLVESGGGLVQAGGSLRLSCAASGLTIWRYAMGWYRQAPGKEREFVATISQYGGRTYYAASVKGRFTITRDNAKKTVNLQMNSLKPEDTAVYYCAADDWRWGYDYWGPGTQVTVSS | high polyreactivity |
| QVQLVESGGGLVHAGGSLRLSCAASGITFKWNDMGWYRQAPGKEREFVAAITGSTGSTFYADSVKGRFTISRDNAKNTVYLQMNSLKPEDTAVYYCAAGPWFYYWGQGTQVTVSS | low polyreactivity |
| QVQLVESGGGLVKAGGSLRLSCAASGLNFNRYTMGWNRQAPGKERELVAVIDCSGGSTRYADSVKGRFTISRDNAKNTVDLQMNSLKPEDTAVYYCDYYWAQGTQVTVSS | low polyreactivity |
| QVQFVESGGGLVQAGGSLRLSCAASGSTFPYYAMGWYRQAPGKERELVAGINWRGSSTYYADSVKGRFTISRDNAKNTVYLQMNSLKPEDTAVYYCAARDYSYPQWYYYWGQGTQVTVSS | high polyreactivity |
| QVQLVESGGGLVQAGGSLRLSCAASGYTFLPYAMGLYRQAPGKERELVADISSGGTTYYADSVKGRFTISRDNAKNTVYLQMNSLKPEDTAVYYCARASLPTYDWGQGTQVTVSS | low polyreactivity |
| QVQLVESGGGLFQAGGSLRLSCAASGSIFFENAMGWYRQAPGKEREFVAASTWSAGGRTDYADSVKGRFTISRDNAKTTVYLQMNSLKPEDTAVYYCARYPTNILYIPVRGYTDMDYWGQGTQVTVSW | low polyreactivity |
| QVQLVESGGGLVQAGGSLRLSCAASGRIFSVYVMGWYRPAPGKERELVAAISGRDGTTYYADSVKGRFTISRDNAKNTVYLQMNSLKPEDTAVYYCAAEDIDFTPMDYWGQGTQVTVSS | high polyreactivity |
| QVQLVESGGGLVQAGGSLRLSCAASGIIIDNYTMGWYRQAPGKEREFVAAINKSGGSTYADSVKGRFTISRDNAKNTVYLQMNSLKPEDTAVYYCAAEVDYSYWPEYARKYYYWGQGTQVTVSS | low polyreactivity |
| QVQLVESGGGLVQAGGSLRLSCAASGRILTYYVMGWYRQAPGKERELVAAITDSGGITYADSVKGRFTISRDNAKNTVYLQMNSLKPEDTAVYYCAAVRFFLYYFDFSAYDYWGQGTQVTVSS | low polyreactivity |
